In PMC9667302:

Biological target: Bluetongue virus (BTV-1) membrane penetration protein VP5 (bluetongue virus (BTV-1))
Experiment: cryo-EM structure

Question: “Bluetongue virus (BTV-1) membrane penetration protein VP5 (natural protein)” was tested. Which stoichiometry N did it give?
Answer: 3
